Target: M1R-TEV-tTA fusion protein

TANGO β-arrestin recruitment assay, luciferase reporter (RLU), HTLA cells treated with the muscarinic agonist carbachol: 7.4 fold
Substance: β-arrestin-TEV protease (from UniProt P32121 1-409) (natural protein)
